According to the supplement of paper PMC9112550, “Optimization of the antimicrobial peptide Bac7 by deep mutational scanning” (BMC Biology, 2022):

Each sequence was assayed on Escherichia coli TOP10 (assay: shrunken log2 fold change of peptide-encoding DNA abundance (4.5 h post-induction vs induction); higher = less antimicrobial activity (less host growth inhibition)). Details: time post-induction: 4.5 h; library: site-saturation at positions 5, 18, 19, 20.
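Note: peptides expressed intracellularly from a pBAD plasmid library in pooled LB shake-flask culture, induced with 0.3% L-arabinose, DNA abundance read by NGS, three biological replicates, DESeq2 with apeglm shrinkage.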

In order of falling “shrunken log2 fold change” value:
1. RRIRGRPPRLPRPRPRPREEPRP  1.57
2. RRIRDRPPRLPRPRPRPLRKPRP  1.36
3. RRIRFRPPRLPRPRPRPPPIPRP  1.02
4. RRIRGRPPRLPRPRPRPLIEPRP  0.801
5. RRIRMRPPRLPRPRPRPGERPRP  0.772
6. RRIRFRPPRLPRPRPRPARDPRP  0.732
7. RRIRRRPPRLPRPRPRPMRSPRP  0.579
8. RRIRSRPPRLPRPRPRPELEPRP  0.54
9. RRIRKRPPRLPRPRPRPTRVPRP  0.53
10. RRIRPRPPRLPRPRPRPRRGPRP  0.46
11. RRIRQRPPRLPRPRPRPVGEPRP  0.443
12. RRIRVRPPRLPRPRPRPHQKPRP  0.375
13. RRIRGRPPRLPRPRPRPDNAPRP  0.364
14. RRIRSRPPRLPRPRPRPTQWPRP  0.354
15. RRIRKRPPRLPRPRPRPFCGPRP  0.345
16. RRIRPRPPRLPRPRPRPNAAPRP  0.237
17. RRIRSRPPRLPRPRPRPAQDPRP  0.235
18. RRIRNRPPRLPRPRPRPGCEPRP  0.212
19. RRIRRRPPRLPRPRPRPSWLPRP  0.202
20. RRIRDRPPRLPRPRPRPDIFPRP  0.171
21. RRIRIRPPRLPRPRPRPRRRPRP  0.169
22. RRIRWRPPRLPRPRPRPGESPRP  0.159
23. RRIRTRPPRLPRPRPRPRCRPRP  0.158
24. RRIRTRPPRLPRPRPRPTWHPRP  0.153
25. RRIRERPPRLPRPRPRPHAWPRP  0.146
26. RRIRIRPPRLPRPRPRPPLCPRP  0.142
27. RRIRVRPPRLPRPRPRPKNRPRP  0.137
28. RRIRDRPPRLPRPRPRPEISPRP  0.134
29. RRIRCRPPRLPRPRPRPEHWPRP  0.118
30. RRIRGRPPRLPRPRPRPFRYPRP  0.0984
31. RRIRRRPPRLPRPRPRPDLLPRP  0.0733
32. RRIRIRPPRLPRPRPRPFQIPRP  0.0698
33. RRIRERPPRLPRPRPRPGFYPRP  0.057
34. RRIRMRPPRLPRPRPRPWKAPRP  0.0518
35. RRIRVRPPRLPRPRPRPLSSPRP  0.0511
36. RRIRKRPPRLPRPRPRPIRCPRP  0.0497
37. RRIRCRPPRLPRPRPRPMVAPRP  0.0319
38. RRIRDRPPRLPRPRPRPDAYPRP  0.0301
39. RRIRNRPPRLPRPRPRPAEFPRP  0.0274
40. RRIRQRPPRLPRPRPRPDLGPRP  0.0039
41. RRIRFRPPRLPRPRPRPVQKPRP  0.00252
42. RRIRHRPPRLPRPRPRPMPPPRP  0.00237
43. RRIRNRPPRLPRPRPRPHHGPRP  -0.00683
44. RRIRERPPRLPRPRPRPKNGPRP  -0.0133
45. RRIRFRPPRLPRPRPRPVQIPRP  -0.0152
46. RRIRMRPPRLPRPRPRPVMYPRP  -0.0366
47. RRIRRRPPRLPRPRPRPKMCPRP  -0.0385
48. RRIRTRPPRLPRPRPRPFVAPRP  -0.0696
49. RRIRHRPPRLPRPRPRPHAHPRP  -0.072
50. RRIRLRPPRLPRPRPRPAYAPRP  -0.0747
51. RRIRWRPPRLPRPRPRPAYIPRP  -0.0757
52. RRIRYRPPRLPRPRPRPEGSPRP  -0.0779
53. RRIRNRPPRLPRPRPRPHSKPRP  -0.117
54. RRIRPRPPRLPRPRPRPEDHPRP  -0.131
55. RRIRSRPPRLPRPRPRPAYKPRP  -0.136
56. RRIRTRPPRLPRPRPRPQDSPRP  -0.153
57. RRIRSRPPRLPRPRPRPRHYPRP  -0.172
58. RRIRDRPPRLPRPRPRPPQIPRP  -0.179
59. RRIRARPPRLPRPRPRPYPEPRP  -0.181
60. RRIRWRPPRLPRPRPRPQYCPRP  -0.198
61. RRIRSRPPRLPRPRPRPFYRPRP  -0.271
62. RRIRMRPPRLPRPRPRPNSFPRP  -0.298
63. RRIRQRPPRLPRPRPRPHSKPRP  -0.328
64. RRIRPRPPRLPRPRPRPNHDPRP  -0.384
65. RRIRVRPPRLPRPRPRPFKMPRP  -0.398
66. RRIRIRPPRLPRPRPRPSPLPRP  -0.499
67. RRIRIRPPRLPRPRPRPNKQPRP  -0.525
68. RRIRCRPPRLPRPRPRPATIPRP  -0.55
69. RRIRYRPPRLPRPRPRPENHPRP  -0.552
70. RRIRPRPPRLPRPRPRPCNLPRP  -0.593
71. RRIRPRPPRLPRPRPRPSIIPRP  -0.634
72. RRIRFRPPRLPRPRPRPWCCPRP  -0.654
73. RRIRERPPRLPRPRPRPSMQPRP  -0.759
74. RRIRLRPPRLPRPRPRPMNVPRP  -0.839
75. RRIRCRPPRLPRPRPRPTYSPRP  -1.01
